The results in this text go back to patent publication US20020123091.

One data set deals with T1, PRO256 polypeptide.
T1 chain: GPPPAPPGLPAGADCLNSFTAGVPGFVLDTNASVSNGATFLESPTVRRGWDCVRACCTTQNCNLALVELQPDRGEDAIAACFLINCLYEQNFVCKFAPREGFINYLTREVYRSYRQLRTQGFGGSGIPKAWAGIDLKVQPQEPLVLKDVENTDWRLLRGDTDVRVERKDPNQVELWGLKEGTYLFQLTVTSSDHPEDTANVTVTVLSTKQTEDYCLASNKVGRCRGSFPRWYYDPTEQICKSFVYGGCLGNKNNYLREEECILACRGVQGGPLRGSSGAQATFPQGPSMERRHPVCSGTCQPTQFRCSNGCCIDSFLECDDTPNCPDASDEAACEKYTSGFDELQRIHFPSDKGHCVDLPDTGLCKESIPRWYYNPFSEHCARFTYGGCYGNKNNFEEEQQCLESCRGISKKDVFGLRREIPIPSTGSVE

In data set [1] the target is single-chain hepatocyte growth factor (scHGF).
single-chain hepatocyte growth factor (scHGF), sequence (P14210 whole entry): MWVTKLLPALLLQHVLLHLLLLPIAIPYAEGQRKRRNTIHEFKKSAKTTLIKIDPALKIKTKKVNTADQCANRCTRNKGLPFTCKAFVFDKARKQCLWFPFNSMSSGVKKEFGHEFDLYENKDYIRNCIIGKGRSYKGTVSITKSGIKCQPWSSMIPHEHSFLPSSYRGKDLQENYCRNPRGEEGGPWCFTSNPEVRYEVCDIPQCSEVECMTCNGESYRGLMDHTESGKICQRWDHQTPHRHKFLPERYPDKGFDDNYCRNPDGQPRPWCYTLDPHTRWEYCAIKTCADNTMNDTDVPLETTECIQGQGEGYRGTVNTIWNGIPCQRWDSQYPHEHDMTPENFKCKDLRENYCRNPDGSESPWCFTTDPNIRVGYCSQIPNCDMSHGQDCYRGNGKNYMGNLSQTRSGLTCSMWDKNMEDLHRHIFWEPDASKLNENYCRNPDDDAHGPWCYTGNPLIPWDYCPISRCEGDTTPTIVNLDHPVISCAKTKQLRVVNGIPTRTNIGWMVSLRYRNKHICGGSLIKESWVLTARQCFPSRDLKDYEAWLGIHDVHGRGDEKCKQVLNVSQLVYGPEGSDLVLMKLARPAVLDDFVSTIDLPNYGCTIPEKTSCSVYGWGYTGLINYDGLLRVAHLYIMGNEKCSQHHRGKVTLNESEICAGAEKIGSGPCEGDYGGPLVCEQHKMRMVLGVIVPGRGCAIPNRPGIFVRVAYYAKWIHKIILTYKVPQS

B1: human factor XIIa (Haematologic Technologies) (protein)
chain: IPPWEAPKEHKYKAEEHTVVLTVTGEPCHFPFQYHRQLYHKCTHKGRPGPQPWCATTPNFDQDQRWGYCLEPKKVKDHCSKHSPCQKGGTCVNMPSGPHCLCPQHLTGNHCQKEKCFEPQLLRFFHKNEIWYRTEQAAVARCQCKGPDAHCQRLASQACRTNPCLHGGRCLEVEGHRLCHCPVGYTGAFCDVDTKASCYDGRGLSYRGLARTTLSGAPCQPWASEATYRNVTAEQARNWGLGGHAFCRNPDNDIRPWCFVLNRDRLSWEYCDLAQCQTPTQAAPPTPVSPRLHVPLMPAQPAPPKPQPTTRTPPQSQTPGALPAKREQPPSLTRNGPLSCGQRLRKSLSSMTRVVGGLVALRGAHPYIAALYWGHSFCAGSLIAPCWVLTAAHCLQDRPAPEDLTVVLGQERRNHSCEPCQTLAVRSYRLHEAFSPVSYQHDLALLRLQEDADGSCALLSPYVQPVCLPSGAARPSETTLCQVAGWGHQFEGAEEYASFLQEAQVPFLSLERCSAPDVHGSSILPGMLCAGFLEGGTDACQGDSGGPLVCEDQAAERRLTLQGIISWGSGCGDRNKPGVYTDVAYYLAWIREHTVS
Turning to B1, the “factor XIIa (40 nM) conversion of ^125I-scHGF into its two chain form, SDS-PAGE/autoradiography, with or without PRO256” value with PRO256 polypeptide is given as “In the presence or absence of PRO256, factor XIIa converts ^125I-scHGF into its two chain form, thereby indicating lack of inhibition by PRO256”. Further, in data set [1], the “conversion of ^125I-scHGF into its two chain form, factor XIIa 40 nM, SDS-PAGE/autoradiography” value is on record as “factor XIIa converts ^125I-scHGF into its two chain form”; the “conversion of scHGF into its two chain form, factor XIIa 20 nM, SDS-PAGE with autoradiography or Coomassie staining” value is “Both labelled and unlabelled HGF were converted identically, suggesting that the iodination of scHGF did not impair processing by its activators, such as factor XIIa”.

B2: hepatocyte growth factor activator (as present in human serum) (protein)
chain: VQLSPDLLATLPEPASPGRQACGRRHKKRTFLRPRIIGGSSSLPGSHPWLAAIYIGDSFCAGSLVHTCWVVSAAHCFSHSPPRDSVSVVLGQHFFNRTTDVTQTFGIEKYIPYTLYSVFNPSDHDLVLIRLKKKGDRCATRSQFVQPICLPEPGSTFPAGHKCQIAGWGHLDENVSGYSSSLREALVPLVADHKCSSPEVYGADISPNMLCAGYFDCKSDACQGDSGGPLACEKNGVAYLYGIISWGDGCGRLHKPGVYTRVANYVDWINDRIRPPRRLVAPS
As for B2, in the data set with PRO256 polypeptide, the “human serum (10%)-mediated conversion of ^125I-scHGF into its two chain form, SDS-PAGE/autoradiography, PRO256 at 1 µM” value is “In the presence of the inhibitor PRO256 (at time intervals 0, 0.5 hr, 1 hr, 2 hr, and 4 hr), ^125I-sc-HGF is not converted two chain form as indicated by the top heavy band on the gel”.
